# T1: TaGST-10 (Triticum aestivum, UniProt A0A3B5XZG4)
# T1 sequence (A0A3B5XZG4 1-234): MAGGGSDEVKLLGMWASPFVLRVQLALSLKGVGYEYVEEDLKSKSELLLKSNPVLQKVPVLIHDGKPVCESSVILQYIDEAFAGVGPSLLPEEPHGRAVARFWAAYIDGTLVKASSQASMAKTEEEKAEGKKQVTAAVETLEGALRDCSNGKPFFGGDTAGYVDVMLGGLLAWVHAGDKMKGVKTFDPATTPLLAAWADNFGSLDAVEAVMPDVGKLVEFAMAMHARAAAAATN
# B1: TaGST-10 (Triticum aestivum) (protein)
# chain: T1 sequence (A0A3B5XZG4 1-234)
# notes: N-His6-MBP-TaGST-10 (full-length fusion)
# Tests used:
# TaGST-10 [1] = target: T1, TaGST-10; assay: LC-MS/MS of DON-13-GSH formation, […] DON, apparent specific activity; format: biochemical; design: gene LOC123049460; N-His6-SUMO-TaGST-10, IMAC and size-exclusion purified
# TaGST-10 [2] = target: T1, TaGST-10; assay: co-crystal structure, […] Å; format: binding; design: gene LOC123049460; TaGST-10 after TEV removal of the N-His6-MBP tag; dimer in the asymmetric unit
# purified protein [3] = substrate: N[C@@H](CCC(=O)N[C@@H](CS)C(=O)NCC(=O)O)C(=O)O; assay: purified protein; format: biochemical, Triticum aestivum; details: G-site in the N-terminal domain; pH 6.5; 20.0 °C
# purified protein [4] = substrate: S=C=NCCc1ccccc1; assay: purified protein; format: biochemical, Triticum aestivum; details: GSH; pH 6.5; 20.0 °C
# purified protein [5] = substrate: C=C(CC)C(=O)c1ccc(OCC(=O)O)c(Cl)c1Cl; assay: purified protein; details: GSH; pH 6.5; 20.0 °C
molecule,measurement,setting,value
"CC1=C[C@H]2O[C@@H]3[C@H](O)C[C@](C)([C@@]2(CO)[C@H](O)C1=O)[C@]31CO1 [DON, deoxynivalenol]","LC-MS/MS of DON-13-GSH formation, 5 mM DON, apparent specific activity",TaGST-10 [1],6.3 10^−5 ± 0.4 10^−5
CC1=C[C@H]2O[C@@H]3[C@H](O)C[C@](C)([C@]24CO[C@@]1(O)[C@H]4O)[C@]3(O)CSC[C@H](NC(=O)CC[C@H](N)C(=O)O)C(=O)NCC(=O)O (mixture of isomers) [DON-13-GSH],"co-crystal structure, 2.3 Å",TaGST-10 [2],TaGST-10 crystallized as a dimer in the asymmetric unit and contained a molecule of DON-13-GSH in each active site.
B1,K0.5,purified protein [3],0.46 ± 0.01 mM
same,K0.5,purified protein [4],0.041 ± 0.004 mM
same,kcat,purified protein [4],2 s⁻¹
same,kcat/Km,purified protein [4],47000 M⁻¹ s⁻¹
same,K0.5,purified protein [5],0.023 ± 0.003 mM
same,kcat,purified protein [5],0.13 s⁻¹
same,kcat/Km,purified protein [5],5500 M⁻¹ s⁻¹
